Results published in patent US20240245793A1, “PSD-95 INHIBITORS AND USES THEREOF” (priority 2021, published 2024).

B1: compound 13, NPEG4-(KETTV)2 fused to L-TAT (Ac-[…]-) (peptide)
peptide: KETTV
chain: […]
modifications: not checked
B2: compound 11, NPEG4-(KETLV)2 fused to L-TAT (Ac-[…]-) (peptide)
peptide: KETLV
chain: […]
modifications: not checked
B3: compound 17, NPEG4-(KETRV)2 fused to L-TAT (Ac-[…]-) (peptide)
peptide: KETRV
chain: […]
modifications: not checked
B4: compound 21, NPEG4-(VETVV)2 fused to L-TAT (Ac-[…]-) (peptide)
peptide: VETVV
chain: […]
modifications: not checked
B5: compound 15, NPEG4-(KETVV)2 fused to L-TAT (Ac-[…]-) (peptide)
peptide: KETVV
chain: […]
modifications: not checked
B6: compound 19, NPEG4-(ISTDV)2 fused to L-TAT (Ac-[…]-) (peptide)
peptide: ISTDV
chain: […]
modifications: not checked

molecular target: PDZ1-2 of PSD-95 (postsynaptic density protein-95), P78352; assay: FP competition against fluorescent dimeric probe, Ki from IC50
Sequence (P78352 61-249 limits assumed): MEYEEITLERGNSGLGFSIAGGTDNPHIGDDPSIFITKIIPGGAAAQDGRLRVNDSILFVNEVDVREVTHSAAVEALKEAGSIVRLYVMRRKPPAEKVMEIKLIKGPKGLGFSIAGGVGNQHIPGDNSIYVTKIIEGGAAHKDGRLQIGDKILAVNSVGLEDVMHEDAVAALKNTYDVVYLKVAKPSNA

Point of comparison: B5, Ki 2.1 nM. Against it:
- B1 — 3.1-fold higher, 6.5 nM
- B2 — 2.6-fold higher, 5.4 nM
- B3 — 3.1-fold higher, 6.6 nM
- B4 — 7.5-fold higher, 15.8 nM
- B6 — 17-fold higher, 36.1 nM
